# Literature values, collected in paper PMC3433420.
# Read-outs that look alike come from different tables or passages of the source.
# Key:
# Settings in all cases: cited from earlier work
# LCK (Homo sapiens) = LCK (Homo sapiens) (UniProt P06239)
# RASA1-NC (Homo sapiens) [1] = biological target: RASA1-NC (Homo sapiens) (UniProt P20936)
# SLA (Homo sapiens) [2] = biological target: SLA (Homo sapiens) (UniProt Q13239)
# SOCS1 (Homo sapiens) = SOCS1 (Homo sapiens) (UniProt O15524)
# PIK3R1-NC (Homo sapiens) [3] = biological target: PIK3R1-NC (Homo sapiens) (UniProt P27986)
# PIK3R1-NC (Homo sapiens), sequence (P27986 328-723): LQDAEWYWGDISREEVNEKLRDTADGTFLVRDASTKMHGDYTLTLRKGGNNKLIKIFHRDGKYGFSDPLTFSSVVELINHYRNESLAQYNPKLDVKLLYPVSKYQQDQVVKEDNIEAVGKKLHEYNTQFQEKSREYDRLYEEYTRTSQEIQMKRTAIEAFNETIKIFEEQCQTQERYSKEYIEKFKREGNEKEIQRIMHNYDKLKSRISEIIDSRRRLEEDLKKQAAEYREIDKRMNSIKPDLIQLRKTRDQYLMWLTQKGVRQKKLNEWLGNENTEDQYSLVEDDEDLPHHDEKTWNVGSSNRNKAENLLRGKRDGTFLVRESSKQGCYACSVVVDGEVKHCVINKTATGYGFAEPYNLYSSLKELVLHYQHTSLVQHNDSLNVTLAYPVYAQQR
# SRC (Homo sapiens) = SRC (Homo sapiens) (UniProt P12931)
# SOCS2 (Homo sapiens) = SOCS2 (Homo sapiens) (UniProt O14508)
# GRB10 (Homo sapiens) [4] = biological target: GRB10 (Homo sapiens) (UniProt Q13322)
# GRB10 (Homo sapiens), sequence (Q13322 488-579): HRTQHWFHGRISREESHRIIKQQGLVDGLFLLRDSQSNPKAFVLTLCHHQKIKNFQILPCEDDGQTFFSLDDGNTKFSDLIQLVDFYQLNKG
# GRB7 (Homo sapiens) [5] = biological target: GRB7 (Homo sapiens) (UniProt Q14451)
# GRB7 (Homo sapiens), sequence (Q14451 426-532): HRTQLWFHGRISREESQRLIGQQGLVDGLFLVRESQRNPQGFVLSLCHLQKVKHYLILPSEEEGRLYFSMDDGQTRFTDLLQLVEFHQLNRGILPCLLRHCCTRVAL
# PIK3R3-NC (Homo sapiens) [6] = biological target: PIK3R3-NC (Homo sapiens) (UniProt Q92569)
# SH2D2A (Homo sapiens) = SH2D2A (Homo sapiens) (UniProt Q9NP31)
# SH2D2A (Homo sapiens), sequence (Q9NP31 90-191): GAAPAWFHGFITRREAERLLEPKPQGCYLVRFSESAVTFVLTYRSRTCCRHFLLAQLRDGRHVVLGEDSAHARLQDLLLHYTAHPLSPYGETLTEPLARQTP
# FES (Homo sapiens) = FES (Homo sapiens) (UniProt P07332)
# FES (Homo sapiens), sequence (P07332 455-554): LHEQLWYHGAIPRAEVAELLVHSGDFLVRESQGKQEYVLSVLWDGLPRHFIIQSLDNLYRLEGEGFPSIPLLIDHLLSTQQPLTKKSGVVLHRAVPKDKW
# ABL2 (Homo sapiens) [7] = biological target: ABL2 (Homo sapiens) (UniProt P42684)
# ABL2 (Homo sapiens), sequence (P42684 168-268): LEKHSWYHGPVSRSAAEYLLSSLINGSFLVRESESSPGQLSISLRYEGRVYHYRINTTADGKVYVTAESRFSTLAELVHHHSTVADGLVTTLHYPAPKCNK
# RASA1-N (Homo sapiens) [8] = biological target: RASA1-N (Homo sapiens) (UniProt P20936)
# RASA1-N (Homo sapiens), sequence (P20936 176-446): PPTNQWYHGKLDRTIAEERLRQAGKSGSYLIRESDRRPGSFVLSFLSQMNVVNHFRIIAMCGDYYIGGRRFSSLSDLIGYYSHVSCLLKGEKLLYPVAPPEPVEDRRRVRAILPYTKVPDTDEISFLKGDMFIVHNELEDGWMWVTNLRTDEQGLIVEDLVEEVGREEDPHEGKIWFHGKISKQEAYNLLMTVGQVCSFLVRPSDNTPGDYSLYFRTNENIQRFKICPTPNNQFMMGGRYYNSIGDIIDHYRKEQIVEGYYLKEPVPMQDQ
# GRB10 (Homo sapiens) [9] = biological target: GRB10 (Homo sapiens) (UniProt Q13322); remark: listed apart in the source
# YES1 (Homo sapiens) = YES1 (Homo sapiens) (UniProt P07947)
# YES1 (Homo sapiens), sequence (P07947 153-260): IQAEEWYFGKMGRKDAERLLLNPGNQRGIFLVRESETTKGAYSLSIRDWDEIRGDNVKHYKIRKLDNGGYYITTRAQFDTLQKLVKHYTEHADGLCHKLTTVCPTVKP
# TNS4 (Homo sapiens) = TNS4 (Homo sapiens) (UniProt Q8IZW8)
# TNS4 (Homo sapiens), sequence (Q8IZW8 444-561): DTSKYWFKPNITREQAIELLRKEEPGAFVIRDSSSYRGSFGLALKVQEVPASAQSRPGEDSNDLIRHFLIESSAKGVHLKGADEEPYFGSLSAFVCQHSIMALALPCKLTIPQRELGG
# SH2D3C (Homo sapiens) = SH2D3C (Homo sapiens) (UniProt Q8N5H7)
# SH2D3C (Homo sapiens), sequence (Q8N5H7 215-324): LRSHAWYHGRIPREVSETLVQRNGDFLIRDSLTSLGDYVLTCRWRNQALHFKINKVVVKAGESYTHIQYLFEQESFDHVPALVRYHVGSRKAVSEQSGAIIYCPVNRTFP
# PLCG2-NC (Homo sapiens) [10] = biological target: PLCG2-NC (Homo sapiens) (UniProt P16885)
# PLCG2-NC (Homo sapiens), sequence (P16885 527-740): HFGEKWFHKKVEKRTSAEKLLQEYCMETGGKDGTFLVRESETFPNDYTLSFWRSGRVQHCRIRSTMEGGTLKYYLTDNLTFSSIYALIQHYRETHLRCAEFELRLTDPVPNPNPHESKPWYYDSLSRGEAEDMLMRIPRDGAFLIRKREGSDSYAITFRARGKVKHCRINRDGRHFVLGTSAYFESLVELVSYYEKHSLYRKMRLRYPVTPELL
# BLK (Homo sapiens) = BLK (Homo sapiens) (UniProt P51451)
# BLK (Homo sapiens), sequence (P51451 119-225): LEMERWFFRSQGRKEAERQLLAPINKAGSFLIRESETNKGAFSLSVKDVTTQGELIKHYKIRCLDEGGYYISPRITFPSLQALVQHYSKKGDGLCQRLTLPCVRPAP
# PLCG2-NC (Homo sapiens) [11] = biological target: PLCG2-NC (Homo sapiens) (UniProt P16885); remark: listed apart in the source
# PTPN6-NC (Homo sapiens) = PTPN6-NC (Homo sapiens) (UniProt P29350)
# PTPN6-NC (Homo sapiens), sequence (P29350 1-218): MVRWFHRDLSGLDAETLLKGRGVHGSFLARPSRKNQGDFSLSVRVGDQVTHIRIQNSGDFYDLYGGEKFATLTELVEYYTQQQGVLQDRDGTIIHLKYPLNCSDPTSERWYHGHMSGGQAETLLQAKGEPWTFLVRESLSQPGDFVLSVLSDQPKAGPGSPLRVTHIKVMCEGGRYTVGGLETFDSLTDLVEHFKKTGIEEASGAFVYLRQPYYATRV
# ABL2 (Homo sapiens) [12] = biological target: ABL2 (Homo sapiens) (UniProt P42684); remark: listed apart in the source
# ITK (Homo sapiens) = ITK (Homo sapiens) (UniProt Q08881)
# RASA1-N (Homo sapiens) [13] = biological target: RASA1-N (Homo sapiens) (UniProt P20936); remark: listed apart in the source
# SHC2-PTB (Homo sapiens) = SHC2-PTB (Homo sapiens) (UniProt P98077)
# SH2B (Homo sapiens) = SH2B (Homo sapiens) (UniProt Q9NRF2)
# ZAP70-NC (Homo sapiens) = ZAP70-NC (Homo sapiens) (UniProt P43403)
# ZAP70-NC (Homo sapiens), sequence (P43403 5-259): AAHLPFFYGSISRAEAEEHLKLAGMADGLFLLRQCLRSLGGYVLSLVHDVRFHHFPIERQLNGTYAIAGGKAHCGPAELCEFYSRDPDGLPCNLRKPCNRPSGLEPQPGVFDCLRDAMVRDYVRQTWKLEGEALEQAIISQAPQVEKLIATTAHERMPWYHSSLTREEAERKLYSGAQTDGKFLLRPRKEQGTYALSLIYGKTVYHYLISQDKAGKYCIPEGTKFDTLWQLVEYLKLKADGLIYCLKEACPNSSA
# SHC1-PTB (Homo sapiens) = SHC1-PTB (Homo sapiens) (UniProt P29353)
# RASA1-NC (Homo sapiens) [14] = biological target: RASA1-NC (Homo sapiens) (UniProt P20936); remark: listed apart in the source
# SH2B3 (Homo sapiens) = SH2B3 (Homo sapiens) (UniProt Q9UQQ2)
# SH2B3 (Homo sapiens), sequence (Q9UQQ2 359-467): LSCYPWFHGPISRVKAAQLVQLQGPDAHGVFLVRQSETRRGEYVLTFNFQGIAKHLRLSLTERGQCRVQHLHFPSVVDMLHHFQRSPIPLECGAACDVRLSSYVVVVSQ
# SYK-NC (Homo sapiens) [15] = biological target: SYK-NC (Homo sapiens) (UniProt P43405)
# PIK3R1-NC (Homo sapiens) [16] = biological target: PIK3R1-NC (Homo sapiens) (UniProt P27986); remark: listed apart in the source
# PIK3R3-NC (Homo sapiens) [17] = biological target: PIK3R3-NC (Homo sapiens) (UniProt Q92569); remark: listed apart in the source
# PIK3R2-NC (Homo sapiens) = PIK3R2-NC (Homo sapiens) (UniProt O00459)
# TENC1 (Homo sapiens) [18] = biological target: TENC1 (Homo sapiens) (UniProt Q63HR2)
# TENC1 (Homo sapiens), sequence (Q63HR2 1135-1252): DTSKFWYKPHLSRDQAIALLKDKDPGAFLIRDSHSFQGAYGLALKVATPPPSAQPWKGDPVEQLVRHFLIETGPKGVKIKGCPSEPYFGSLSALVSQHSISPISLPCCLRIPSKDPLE
# PIK3R3-C (Homo sapiens) = PIK3R3-C (Homo sapiens) (UniProt Q92569)
# ABL2 (Homo sapiens) [19] = biological target: ABL2 (Homo sapiens) (UniProt P42684); remark: listed apart in the source
# PIK3R1-NC (Homo sapiens) [20] = biological target: PIK3R1-NC (Homo sapiens) (UniProt P27986); remark: listed apart in the source
# PIK3R3-N (Homo sapiens) [21] = biological target: PIK3R3-N (Homo sapiens) (UniProt Q92569)
# PIK3R1-N (Homo sapiens) = PIK3R1-N (Homo sapiens) (UniProt P27986)
# PIK3R1-N (Homo sapiens), sequence (P27986 328-723): as the sequence (P27986 328-723) above
# PIK3R3-N (Homo sapiens) [22] = biological target: PIK3R3-N (Homo sapiens) (UniProt Q92569); remark: listed apart in the source
# PIK3R2-N (Homo sapiens) [23] = biological target: PIK3R2-N (Homo sapiens) (UniProt O00459)
# PIK3R2-N (Homo sapiens), sequence (O00459 325-721): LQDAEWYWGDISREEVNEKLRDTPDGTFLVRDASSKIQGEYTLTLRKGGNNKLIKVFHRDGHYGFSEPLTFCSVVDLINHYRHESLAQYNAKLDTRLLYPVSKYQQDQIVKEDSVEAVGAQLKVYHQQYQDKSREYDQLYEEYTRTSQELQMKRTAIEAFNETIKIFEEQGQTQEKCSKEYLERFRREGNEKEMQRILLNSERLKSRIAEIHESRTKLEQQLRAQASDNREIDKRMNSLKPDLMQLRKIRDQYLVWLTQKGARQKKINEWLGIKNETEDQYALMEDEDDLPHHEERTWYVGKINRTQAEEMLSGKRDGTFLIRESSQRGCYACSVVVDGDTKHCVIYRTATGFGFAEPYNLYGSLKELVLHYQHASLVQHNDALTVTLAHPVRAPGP
# TENC1 (Homo sapiens) [24] = biological target: TENC1 (Homo sapiens) (UniProt Q63HR2); remark: listed apart in the source
# SLA (Homo sapiens) [25] = biological target: SLA (Homo sapiens) (UniProt Q13239); remark: listed apart in the source
# RASA1-N (Homo sapiens) [26] = biological target: RASA1-N (Homo sapiens) (UniProt P20936); remark: listed apart in the source
# SYK-NC (Homo sapiens) [27] = biological target: SYK-NC (Homo sapiens) (UniProt P43405); remark: listed apart in the source
# PIK3R2-N (Homo sapiens) [28] = biological target: PIK3R2-N (Homo sapiens) (UniProt O00459); remark: listed apart in the source
# GRB7 (Homo sapiens) [29] = biological target: GRB7 (Homo sapiens) (UniProt Q14451); remark: listed apart in the source
# PIK3R3-NC (Homo sapiens) [30] = biological target: PIK3R3-NC (Homo sapiens) (UniProt Q92569); remark: listed apart in the source
# SLA (Homo sapiens), sequence (Q13239 79-180): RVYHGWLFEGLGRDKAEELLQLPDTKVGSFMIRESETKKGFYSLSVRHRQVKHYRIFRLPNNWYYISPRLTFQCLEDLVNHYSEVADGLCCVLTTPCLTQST
# RASA1-NC (Homo sapiens), sequence (P20936 176-446): as the sequence (P20936 176-446) above
substance,measurement,setting,value
…pYRALMDEEd,apparent Kd (screen),LCK (Homo sapiens),2000 nM
same,apparent Kd (screen),RASA1-NC (Homo sapiens) [1],1650 nM
same,apparent Kd (screen),SLA (Homo sapiens) [2],1600 nM
same,apparent Kd (screen),SOCS1 (Homo sapiens),2000 nM
same,apparent Kd (screen),PIK3R1-NC (Homo sapiens) [3],239 nM
same,apparent Kd (screen),SRC (Homo sapiens),1140 nM
same,apparent Kd (screen),SOCS2 (Homo sapiens),2000 nM
same,apparent Kd (screen),GRB10 (Homo sapiens) [4],1690 nM
same,apparent Kd (screen),GRB7 (Homo sapiens) [5],755 nM
same,apparent Kd (screen),PIK3R3-NC (Homo sapiens) [6],968 nM
same,apparent Kd (screen),SH2D2A (Homo sapiens),2000 nM
same,apparent Kd (screen),FES (Homo sapiens),1230 nM
same,apparent Kd (screen),ABL2 (Homo sapiens) [7],1500 nM
same,apparent Kd (screen),RASA1-N (Homo sapiens) [8],1060 nM
same,apparent Kd (screen),GRB10 (Homo sapiens) [9],2000 nM
same,apparent Kd (screen),YES1 (Homo sapiens),724 nM
same,apparent Kd (screen),TNS4 (Homo sapiens),2000 nM
same,apparent Kd (screen),SH2D3C (Homo sapiens),2000 nM
same,apparent Kd (screen),PLCG2-NC (Homo sapiens) [10],1500 nM
same,apparent Kd (screen),BLK (Homo sapiens),191 nM
same,apparent Kd (screen),PLCG2-NC (Homo sapiens) [11],1390 nM
same,apparent Kd (screen),PTPN6-NC (Homo sapiens),2000 nM
same,apparent Kd (screen),ABL2 (Homo sapiens) [12],2000 nM
same,apparent Kd (screen),ITK (Homo sapiens),277 nM
same,apparent Kd (screen),RASA1-N (Homo sapiens) [13],709 nM
same,apparent Kd (screen),SHC2-PTB (Homo sapiens),978 nM
same,apparent Kd (screen),SH2B (Homo sapiens),2000 nM
same,apparent Kd (screen),ZAP70-NC (Homo sapiens),1650 nM
same,apparent Kd (screen),SHC1-PTB (Homo sapiens),1150 nM
same,apparent Kd (screen),RASA1-NC (Homo sapiens) [14],1380 nM
same,apparent Kd (screen),SH2B3 (Homo sapiens),1360 nM
same,apparent Kd (screen),SYK-NC (Homo sapiens) [15],905 nM
…pYEYMNRQR,apparent Kd (screen),PIK3R1-NC (Homo sapiens) [16],43 nM
same,apparent Kd (screen),PIK3R3-NC (Homo sapiens) [17],122 nM
same,apparent Kd (screen),PIK3R2-NC (Homo sapiens),99 nM
same,apparent Kd (screen),TENC1 (Homo sapiens) [18],1710 nM
same,apparent Kd (screen),PIK3R3-C (Homo sapiens),130 nM
same,apparent Kd (screen),ABL2 (Homo sapiens) [19],357 nM
same,apparent Kd (screen),PIK3R1-NC (Homo sapiens) [20],33 nM
same,apparent Kd (screen),PIK3R3-N (Homo sapiens) [21],157 nM
same,apparent Kd (screen),PIK3R1-N (Homo sapiens),296 nM
same,apparent Kd (screen),PIK3R3-N (Homo sapiens) [22],171 nM
same,apparent Kd (screen),PIK3R2-N (Homo sapiens) [23],199 nM
same,apparent Kd (screen),TENC1 (Homo sapiens) [24],1620 nM
same,apparent Kd (screen),SLA (Homo sapiens) [25],2000 nM
same,apparent Kd (screen),RASA1-N (Homo sapiens) [26],1040 nM
same,apparent Kd (screen),SYK-NC (Homo sapiens) [27],1300 nM
same,apparent Kd (screen),PIK3R2-N (Homo sapiens) [28],151 nM
same,apparent Kd (screen),GRB7 (Homo sapiens) [29],999 nM
same,apparent Kd (screen),PIK3R3-NC (Homo sapiens) [30],151 nM
